The target in experiment [1] is T1, CD19 (UniProt P15391 20-556).
T1 chain: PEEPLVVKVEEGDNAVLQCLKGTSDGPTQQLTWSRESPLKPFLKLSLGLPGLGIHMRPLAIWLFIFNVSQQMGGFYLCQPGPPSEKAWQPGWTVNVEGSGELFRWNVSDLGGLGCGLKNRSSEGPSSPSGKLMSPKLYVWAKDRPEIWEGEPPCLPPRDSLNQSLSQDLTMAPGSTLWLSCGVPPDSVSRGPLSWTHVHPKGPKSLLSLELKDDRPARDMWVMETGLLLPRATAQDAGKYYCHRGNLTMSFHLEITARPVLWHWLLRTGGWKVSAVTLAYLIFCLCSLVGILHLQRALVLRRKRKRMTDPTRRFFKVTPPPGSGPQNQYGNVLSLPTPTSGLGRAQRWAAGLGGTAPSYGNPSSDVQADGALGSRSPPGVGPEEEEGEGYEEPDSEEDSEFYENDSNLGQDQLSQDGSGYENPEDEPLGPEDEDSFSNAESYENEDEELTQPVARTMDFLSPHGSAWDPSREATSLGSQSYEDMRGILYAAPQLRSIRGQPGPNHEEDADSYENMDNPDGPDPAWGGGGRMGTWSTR
Description: flow cytometry cell binding; FIG. 8. A general note: Flow cytometry measures light scatter and fluorescence of single cells or particles in a stream.

In experiment [2] the target is CD19 (UniProt P15391). In words: cell-based or functional assay.
The target in experiment [3] is T1, CD19. Description: flow cytometry cell binding; FIG. 6.
Experiment [4] concerns the target T2, CD19 (UniProt P15391 20-556, limits assumed).
T2 sequence (looked up): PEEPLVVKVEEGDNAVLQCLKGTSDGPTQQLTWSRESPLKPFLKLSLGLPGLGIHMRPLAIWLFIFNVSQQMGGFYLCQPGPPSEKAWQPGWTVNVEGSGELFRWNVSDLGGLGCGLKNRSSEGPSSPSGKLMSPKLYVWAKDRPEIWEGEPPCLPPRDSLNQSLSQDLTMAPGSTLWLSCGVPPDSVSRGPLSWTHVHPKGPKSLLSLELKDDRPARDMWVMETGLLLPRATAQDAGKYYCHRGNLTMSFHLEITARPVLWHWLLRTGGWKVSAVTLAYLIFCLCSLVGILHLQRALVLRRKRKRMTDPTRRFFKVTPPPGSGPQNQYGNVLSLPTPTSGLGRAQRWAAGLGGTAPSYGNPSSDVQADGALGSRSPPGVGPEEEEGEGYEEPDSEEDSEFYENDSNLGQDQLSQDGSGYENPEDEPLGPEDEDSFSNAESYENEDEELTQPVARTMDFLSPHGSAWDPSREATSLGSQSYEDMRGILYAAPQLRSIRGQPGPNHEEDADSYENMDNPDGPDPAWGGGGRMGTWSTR
In words: cell-based or functional assay.

Experiment [5] has as its target T1, CD19. Description: flow cytometry cell binding; FIG. 7.
Experiment [6] deals with T1, CD19. Description: flow cytometry cell binding; FIG. 5; WT switch (no PNE).

In general, EC50 refers to the concentration giving half of the maximal effect.

B1: hFMCL2b-LCNT/hFMCH4c (Fab, V domains shown)
VH: QVQLQESGPGLVKPSETLSVTCTVSGVSLPDYGVSWIRQPPGKGLEWLGVIWGSETTYYNSALKSRLTISKDNSKNQVSLKMSSLTAADTAVYYCAKHYYYGGSYAMDYWGQGTLVTVSS
VL: DIQMTQSPSSLSASVGDRVTITCRASQDISKYLNWYQQKPGKAVKLLIYHTSRLHSGVPSRFSGSGSGTDYTLTISSLQPEDFATYFCQQGATLPYTFGQGTKLEIK
Turning to B1, the EC50 in experiment [1] was determined as 1590 pM. In experiment [2], the EC50 of cytotoxicity (LDH), sCAR-T cells + switch vs CD19+ RS4;11, Average of the repeat assays is 10.2 pM; the EC50 of cytotoxicity (LDH), sCAR-T cells + switch vs CD19+ RS4;11, assay DTR-5-15 (PBMC) is 8.41 pM; the EC50 of cytotoxicity (LDH), sCAR-T cells + switch vs CD19+ RS4;11, assay DTR-5-16 (CD4:CD8) amounted to 8.47 pM; the EC50 of cytotoxicity (LDH), sCAR-T cells + switch vs CD19+ RS4;11, assay DTR-5-50 (PBMC) was 7.54 pM. Further, the EC50 of cytotoxicity (LDH), sCAR-T cells + switch vs CD19+ RS4;11, assay DTR-5-51 (CD4:CD8) in experiment [2] is 16.5 pM. In experiment [3], the EC50 worked out at 1260 pM. Besides, in experiment [4], the “EC50 of cytotoxicity (LDH), sCAR-T cells + switch vs CD19+ RS4;11, Average of the repeat assays” value was 4.6 pM; the “EC50 of cytotoxicity (LDH), sCAR-T cells + switch vs CD19+ RS4;11, assay DTR-5-15 (PBMC)” value (“EC50 … vs CD19+ RS4;11, assay DTR-5-15 (PBMC)” for short) amounted to 4.57 pM; the “EC50 of cytotoxicity (LDH), sCAR-T cells + switch vs CD19+ RS4;11, assay DTR-5-16 (CD4:CD8)” value (“EC50 … vs CD19+ RS4;11, assay DTR-5-16 (CD4:CD8)” below) stood at 4.61 pM; the “EC50 of cytotoxicity (LDH), sCAR-T cells + switch vs CD19+ RS4;11, assay DTR-5-50 (PBMC)” value (from here on “EC50 … vs CD19+ RS4;11, assay DTR-5-50 (PBMC)”) was determined as 3.78 pM. Also, the “EC50 of cytotoxicity (LDH), sCAR-T cells + switch vs CD19+ RS4;11, assay DTR-5-51 (CD4:CD8)” value (“EC50 … vs CD19+ RS4;11, assay DTR-5-51 (CD4:CD8)” below) in experiment [4] stood at 5.45 pM.

B2: hFMCL2a-LCNT/hFMCH4c (Fab, V domains shown)
VH: QVQLQESGPGLVKPSETLSVTCTVSGVSLPDYGVSWIRQPPGKGLEWLGVIWGSETTYYNSALKSRLTISKDNSKNQVSLKMSSLTAADTAVYYCAKHYYYGGSYAMDYWGQGTLVTVSS
VL: DIQMTQSPSSLSASVGDRVTITCRASQDISKYLNWYQQKPGKAVKLLIYHTSRLHSGVPSRFSGSGSGTDYTLTISSLQPEDFATYYCQQGATLPYTFGQGTKLEIK
In the case of B2, in experiment [1], it took 1810 pM to reach a half-maximal effect (EC50). The same molecule registered a half-maximal effective concentration (EC50) in experiment [3] of 1700 pM. Besides, in experiment [4], the “EC50 of cytotoxicity (LDH), sCAR-T cells + switch vs CD19+ RS4;11, Average of the repeat assays” value worked out at 9.5 pM; the “EC50 … vs CD19+ RS4;11, assay DTR-5-15 (PBMC)” value was 4.43 pM; the “EC50 … vs CD19+ RS4;11, assay DTR-5-16 (CD4:CD8)” value is 9.32 pM; the “EC50 … vs CD19+ RS4;11, assay DTR-5-50 (PBMC)” value was found to be 7.05 pM. Moreover, in experiment [4], the “EC50 … vs CD19+ RS4;11, assay DTR-5-51 (CD4:CD8)” value is 17.2 pM.

B3: hFMCL2c-LCNT/hFMCH4b (Fab, V domains shown)
VH: QVQLQESGPGLVKPSETLSVTCTVSGVSLPDYGVSWIRQPPGKGLEWLGVIWGSETTYYNPSLKSRLTISKDNSKNQVSLKMSSLTAADTAVYYCAKHYYYGGSYAMDYWGQGTLVTVSS
VL: DIQMTQSPSSLSASVGDRVTITCRASQDISKYLNWYQQKPGKAVKLLIYHTSRLHSGVPSRFSGSGSGTDYTLTISSLQPEDFATYFCQQGATLPYTFGQGTKLEIK
B3 displayed an EC50 in experiment [3] of 1380 pM. In experiment [4], the “EC50 of cytotoxicity (LDH), sCAR-T cells + switch vs CD19+ RS4;11, Average of the repeat assays” value amounted to 5.18 pM; the “EC50 … vs CD19+ RS4;11, assay DTR-5-15 (PBMC)” value was 4.04 pM; the “EC50 … vs CD19+ RS4;11, assay DTR-5-16 (CD4:CD8)” value came out at 3.25 pM; the “EC50 … vs CD19+ RS4;11, assay DTR-5-50 (PBMC)” value is 3.78 pM. In experiment [4], the “EC50 … vs CD19+ RS4;11, assay DTR-5-51 (CD4:CD8)” value turned out to be 9.65 pM. This molecule also came in with an EC50 in experiment [5] of 1680 pM.

B4: hFMCL2/H4z (antibody, V domains shown)
VH: QVQLQESGPGLVKPSETLSVTCTVSGVSLPDYGVSWIRQPPGKGLEWLGVIWGSETTYYNSSLKSRLTISKDNSKNQVSLKMSSLTAADTAVYYCAKHYYYGGSYAMDYWGQGTLVTVSS
VL: DIQMTQSPSSLSASVGDRVTITCRASQDISKYLNWYQQKPGKAPKLLIYHTSRLHSGVPSRFSGSGSGTDYTLTISSLQPEDFATYYCQQGATLPYTFGQGTKLEIK
As for B4, the EC50 in experiment [1] worked out at 13100 pM; in experiment [3], 12400 pM.

B5: hFMCL2/H4b wt (antibody, V domains shown)
VH: QVQLQESGPGLVKPSETLSVTCTVSGVSLPDYGVSWIRQPPGKGLEWLGVIWGSETTYYNPSLKSRLTISKDNSKNQVSLKMSSLTAADTAVYYCAKHYYYGGSYAMDYWGQGTLVTVSS
VL: DIQMTQSPSSLSASVGDRVTITCRASQDISKYLNWYQQKPGKAPKLLIYHTSRLHSGVPSRFSGSGSGTDYTLTISSLQPEDFATYYCQQGATLPYTFGQGTKLEIK
B5 displayed a concentration for a half-maximal effect (EC50) in experiment [1] of 3840 pM.

B6: hFMCL2/H4b WT (antibody, V domains shown)
VH: QVQLQESGPGLVKPSETLSVTCTVSGVSLPDYGVSWIRQPPGKGLEWLGVIWGSETTYYNPSLKSRLTISKDNSKNQVSLKMSSLTAADTAVYYCAKHYYYGGSYAMDYWGQGTLVTVSS
VL: DIQMTQSPSSLSASVGDRVTITCRASQDISKYLNWYQQKPGKAPKLLIYHTSRLHSGVPSRFSGSGSGTDYTLTISSLQPEDFATYYCQQGATLPYTFGQGTKLEIK
Consider B6, for which the EC50 in experiment [6] is 4130 pM; in experiment [5], 5380 pM.

B7: hFMCL2b-LCNT/hFMCH4b (Fab, V domains shown)
VH: QVQLQESGPGLVKPSETLSVTCTVSGVSLPDYGVSWIRQPPGKGLEWLGVIWGSETTYYNPSLKSRLTISKDNSKNQVSLKMSSLTAADTAVYYCAKHYYYGGSYAMDYWGQGTLVTVSS
VL: DIQMTQSPSSLSASVGDRVTITCRASQDISKYLNWYQQKPGKAVKLLIYHTSRLHSGVPSRFSGSGSGTDYTLTISSLQPEDFATYFCQQGATLPYTFGQGTKLEIK
In experiment [3], B7 showed an EC50 of 1220 pM. In experiment [4], the “EC50 of cytotoxicity (LDH), sCAR-T cells + switch vs CD19+ RS4;11, Average of the repeat assays” value was determined as 6.21 pM; the “EC50 … vs CD19+ RS4;11, assay DTR-5-15 (PBMC)” value amounted to 5.17 pM; the “EC50 … vs CD19+ RS4;11, assay DTR-5-16 (CD4:CD8)” value was found to be 5.78 pM; the “EC50 … vs CD19+ RS4;11, assay DTR-5-50 (PBMC)” value is 3.93 pM. For the same molecule, the “EC50 … vs CD19+ RS4;11, assay DTR-5-51 (CD4:CD8)” value in experiment [4] is 9.96 pM. The molecule further yielded a half-maximal effective concentration (EC50) in experiment [5] of 2270 pM.

(Values after patent US20190359697A1 (Scripps Research, published 2019).)
